Assay results published in publication PMC7589864.

Biological target: F-actin of thin filaments in ghost fibers from rabbit psoas muscle (rabbit (endogenous in psoas muscle fibers)) (UniProt P68135)
Assay: polarized microfluorimetry of ghost muscle fibers; 5-IAF-labelled Tpm incorporated into ghost fibers (2 mg/mL, 2-3 h); sum of the four polarized fluorescence intensities of Tpm-AF, in the presence of S1

Sequence of recombinant control (wild-type) human tropomyosin Tpm2.2 (natural protein) (P07951 whole entry): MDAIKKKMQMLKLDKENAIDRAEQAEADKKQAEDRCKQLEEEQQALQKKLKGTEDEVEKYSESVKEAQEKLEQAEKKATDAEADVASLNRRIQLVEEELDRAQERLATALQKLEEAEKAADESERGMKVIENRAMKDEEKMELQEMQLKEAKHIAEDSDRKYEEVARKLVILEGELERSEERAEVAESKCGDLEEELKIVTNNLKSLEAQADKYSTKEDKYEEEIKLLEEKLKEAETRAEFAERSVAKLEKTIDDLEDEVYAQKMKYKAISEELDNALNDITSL

| sum of fluorescence intensities for Tpm-AF (Isum) in ghost fibers | Substance |
| --- | --- |
| 1030 | recombinant control (wild-type) human tropomyosin Tpm2.2 (natural protein) |
| 978 | recombinant mutant human tropomyosin Tpm2.2 with the Gln147Pro substitution (natural protein) |
